From patent US20250051406, “CELL TARGETING COMPOSITIONS AND METHODS” (The Trustees of Indiana University, published 2025) come the findings set out here.

This data set concerns the target ZFP K-Ras G12D (six-finger zinc finger protein) (synthetic construct). In words: dot blot, 400 ng gDNA of PANC-1 (heterozygous G12D), ZFP 10 ug/ml, TBS-T/milk, RT; much stronger than WT or G13D gDNA. To be noted: tags: N-terminal 3xFLAG, NLS; expressed in E. coli from pET-30a(+). The procedure: Genomic DNA (gDNA) was extracted from cancer cells using QIAamp DNA Mini Kit (51104, Qiagen Sciences, Inc., Germantown, MD). Concentration of the gDNA was measured by Qubit dsDNA BR Assay kit (Q32853, Invitrogen™, Thermo Fisher Scientific Inc., Waltham, MA) and adjusted to the same contraction. 400 ng of each gDNA was spotted onto a nitrocellulose membrane (15356, Sigma-Aldrich, Burlington, MA) using narrow-mouth pipette tip. Membranes were allowed to dry and then blocked by soaking in 5% non-fat milk in tris-buffered saline tween (TBS-T) at room temperature (RT) for 1 hour. Blocked membranes were incubated with ZFP ([…]) dissolved in milk/TBS-T for 1 hour at RT. The membranes were washed three times with TBS-T and incubated with anti-FLAG@antibody conjugated with horseradish peroxidase (HRP) (86861S, Cell Signaling Technology, Inc., Danvers, MA). The membranes were then washed three times with TBS-T (15 min×1, 5 min×2) and once with TBS (5 min). The signals were developed with enhanced chemiluminescent (ECL) horseradish peroxidase (HRP) substrate (SuperSignal West Pico PLUS Chemiluminescent Substrate, Catalog #34580, Thermo Fisher Scientific) and captured using the ChemiDoc MP Imaging System (12003154, Bio-Rad Laboratories, Hercules, CA).
FIG. 4 depicts dot blot results showing that the ZFPs from Example 3 can distinguish DNA sequences with one or two point mutations in vitro. […]

ZFP K-Ras G12D (six-finger zinc finger protein) (synthetic construct), sequence (chain, as listed by the source G12D G12D): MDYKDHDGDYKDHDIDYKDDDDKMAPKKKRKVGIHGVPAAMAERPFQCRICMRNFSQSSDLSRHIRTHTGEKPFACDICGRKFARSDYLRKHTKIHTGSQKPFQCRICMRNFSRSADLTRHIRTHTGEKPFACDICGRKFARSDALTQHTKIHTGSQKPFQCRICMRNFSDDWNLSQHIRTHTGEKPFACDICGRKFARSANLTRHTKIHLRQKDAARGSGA

B1: KRAS G12D target site (codon 12 GAT) (dsDNA)
DNA 1: GAGCTGATGGCGTAGGCA
DNA 2: TGCCTACGCCATCAGCTC
For B1, the binding result is “binds”.
